The target of series [1] is T1, Cas7 purified via a His-SUMO-tagged fusion protein (Thermoproteus tenax, UniProt G4RJZ1 1-329).
T1 construct: Cas7 of the type I-A Cascade of Thermoproteus tenax Kra1 (genome FN869859), full-length protein; also called Cas7-SUMO; monomeric Cas7; source: E. coli BL21-Gold(DE3)Star pRARE, purified (Ni-NTA, SUMO protease, HiTrap Heparin, Superdex 75)
T1 sequence (looked up): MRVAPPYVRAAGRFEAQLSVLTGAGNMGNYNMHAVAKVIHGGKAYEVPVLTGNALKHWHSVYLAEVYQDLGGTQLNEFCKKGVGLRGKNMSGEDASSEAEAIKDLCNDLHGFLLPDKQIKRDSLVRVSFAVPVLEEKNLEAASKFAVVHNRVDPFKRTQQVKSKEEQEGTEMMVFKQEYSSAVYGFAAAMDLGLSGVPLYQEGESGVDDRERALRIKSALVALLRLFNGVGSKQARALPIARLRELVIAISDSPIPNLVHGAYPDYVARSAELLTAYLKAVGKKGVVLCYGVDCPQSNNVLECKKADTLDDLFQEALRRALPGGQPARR
The experiment in a line: SEC; six co-refolded Cascade subunits, incubated 30 min at 65°C, Superdex 200 10/300; fractions TCA-precipitated and analysed by SDS-PAGE. Particulars: both partners purified.

For series [2], the target named is T2, Cas5a (recombinant, refolded) (Thermoproteus tenax, UniProt G4RJZ2 1-226).
T2 construct: Cas5a of the type I-A Cascade of Thermoproteus tenax Kra1 (genome FN869859)
T2 sequence (looked up): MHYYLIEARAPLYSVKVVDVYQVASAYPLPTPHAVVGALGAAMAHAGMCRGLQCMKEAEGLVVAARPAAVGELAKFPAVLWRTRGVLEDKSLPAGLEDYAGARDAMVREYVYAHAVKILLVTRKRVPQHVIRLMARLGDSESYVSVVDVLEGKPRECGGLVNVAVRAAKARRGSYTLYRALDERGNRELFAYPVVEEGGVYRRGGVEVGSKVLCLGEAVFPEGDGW
The series is described as above. Particulars: both partners purified.

Series [3] has as its target T3, Cas8a2 (recombinant, refolded) (Thermoproteus tenax, UniProt G4RJZ5 1-361).
T3 construct: Cas8a2 of the type I-A Cascade of Thermoproteus tenax Kra1 (genome FN869859)
T3 sequence (looked up): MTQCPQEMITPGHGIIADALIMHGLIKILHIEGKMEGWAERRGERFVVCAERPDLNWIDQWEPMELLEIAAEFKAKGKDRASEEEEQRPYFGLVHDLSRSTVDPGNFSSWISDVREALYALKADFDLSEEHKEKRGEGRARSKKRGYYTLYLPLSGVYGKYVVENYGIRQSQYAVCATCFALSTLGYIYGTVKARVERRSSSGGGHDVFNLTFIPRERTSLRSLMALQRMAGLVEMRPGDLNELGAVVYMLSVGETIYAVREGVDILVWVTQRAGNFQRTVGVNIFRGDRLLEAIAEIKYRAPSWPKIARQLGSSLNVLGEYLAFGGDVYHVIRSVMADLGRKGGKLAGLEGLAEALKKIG
The series is described as above. Particulars: both partners purified.

In the next series the target is T4, Cas7 (Thermoproteus tenax Kra1, UniProt G4RJZ1 1-329).
T4 sequence: T1 sequence (looked up)
The experiment in a line: EMSA; 4 uM Cas7, no competitor; nonspecific, similar shift with yeast RNA; 100 mM HEPES/KOH pH 7, 100 mM NaCl, 10 mM beta-mercaptoethanol, 50 ng yeast RNA, 30 min at 70 C (Cascade; 6% native TBE-PAGE); Cas7 alone without yeast RNA at 80 C, agarose gel; 2-4 nM labeled crRNA. Particulars: protein: recombinant; tags: His-SUMO tag cleaved off; label: 5'-32P (EMSA); unlabeled in SEC; single strand.

The source of these data is PMC4005679, “In vitro assembly and activity of an archaeal CRISPR-Cas type I-A Cascade interference complex” (Nucleic Acids Research, 2014).

B1: Csa5 (recombinant, soluble) (natural protein, Thermoproteus tenax, UniProt G4RJZ0 1-130, looked up)
chain: MESVQLKKEELVERAARSVRPAVHLEMAYDVLDELSRSPEKYPEQLAKLSRIVVKVLNDVEDELEHNPQNEELQKARNRLAAWGGYVAELAKRLEEADDRERIRMVRLFCAMALAPDKLTVELKKLLKGR
notes: Csa5, subunit of the type I-A Cascade of Thermoproteus tenax Kra1 (genome FN869859); source: E. coli Rosetta2(DE3)pLysS, csa5 in pET24a(+), purified (heat precipitation 90°C, Hi Screen Blue FF, MonoQ)
As to B1, the binding result in series [1], in series [2] and in series [3] was “binds” throughout.

Consider AUUGAAAGCGUUGAUGCGGCCGCGACUGGCUGACUCAGCUAUUACGUUGA (ssRNA, 5'-OH from hammerhead cleavage before labeling) [crRNA 5.2], for which, in the series with Cas7, the binding result was “binds”.
